Test results published in paper PMC9482650, “Quantitative fragmentomics allow affinity mapping of interactomes” (Nature Communications, 2022).

T1: INTU, Q9ULD6
T1 sequence (Q9ULD6 180-273, limits assumed, looked up): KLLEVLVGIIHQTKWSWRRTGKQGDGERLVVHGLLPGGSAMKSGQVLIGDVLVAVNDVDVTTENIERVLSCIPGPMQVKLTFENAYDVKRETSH

T2: MPDZ_2, O75970
T2 sequence (O75970 252-347, limits assumed, looked up): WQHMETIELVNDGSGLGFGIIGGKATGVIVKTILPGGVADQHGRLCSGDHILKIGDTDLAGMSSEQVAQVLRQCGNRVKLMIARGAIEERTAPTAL

T3: MPDZ_7, O75970
T3 sequence (O75970 1146-1253, limits assumed, looked up): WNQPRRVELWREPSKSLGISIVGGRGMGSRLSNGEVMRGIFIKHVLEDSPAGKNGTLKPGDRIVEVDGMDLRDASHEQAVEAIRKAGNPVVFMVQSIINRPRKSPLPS

T4: MPP1, Q00013
T4 sequence (Q00013 66-162, limits assumed, looked up): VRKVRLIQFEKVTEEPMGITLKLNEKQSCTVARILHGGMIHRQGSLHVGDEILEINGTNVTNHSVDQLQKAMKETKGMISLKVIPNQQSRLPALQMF

T5: MPP5, Q8N3R9
T5 sequence (Q8N3R9 251-346, limits assumed, looked up): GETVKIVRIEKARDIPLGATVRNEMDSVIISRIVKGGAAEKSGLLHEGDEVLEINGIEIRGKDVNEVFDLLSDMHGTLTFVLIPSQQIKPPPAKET

T6: PDZD2_4, O15018
T6 sequence (O15018 723-823, limits assumed, looked up): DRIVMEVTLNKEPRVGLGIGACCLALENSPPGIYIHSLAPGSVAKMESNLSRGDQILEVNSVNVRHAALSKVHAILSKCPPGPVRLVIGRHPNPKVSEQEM

T7: PDZD4, Q76G19
T7 sequence (Q76G19 125-224, limits assumed, looked up): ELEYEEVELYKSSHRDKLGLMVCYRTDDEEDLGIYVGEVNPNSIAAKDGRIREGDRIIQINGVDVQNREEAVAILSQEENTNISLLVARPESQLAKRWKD

T8: PDZD7_1, Q9H5P4
T8 sequence (Q9H5P4 81-178, limits assumed, looked up): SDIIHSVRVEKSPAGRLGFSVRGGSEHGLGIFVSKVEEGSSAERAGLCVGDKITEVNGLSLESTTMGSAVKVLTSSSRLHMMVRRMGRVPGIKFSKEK

T9: PDZD8, Q8NEN9
T9 sequence (Q8NEN9 361-459, limits assumed, looked up): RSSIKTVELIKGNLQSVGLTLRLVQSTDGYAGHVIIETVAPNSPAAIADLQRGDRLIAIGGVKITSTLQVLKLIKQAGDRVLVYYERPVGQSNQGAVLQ

T10: SHROOM3, Q8TF72
T10 sequence (Q8TF72 20-120, limits assumed, looked up): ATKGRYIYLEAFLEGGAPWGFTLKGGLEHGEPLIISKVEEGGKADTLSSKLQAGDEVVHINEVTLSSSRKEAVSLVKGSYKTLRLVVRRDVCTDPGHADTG

T11: SNTB2, Q13425
T11 sequence (Q13425 110-208, limits assumed, looked up): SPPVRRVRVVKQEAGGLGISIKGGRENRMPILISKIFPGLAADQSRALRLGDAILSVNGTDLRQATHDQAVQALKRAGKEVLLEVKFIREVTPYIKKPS

T12: TJP3_1, O95049
T12 sequence (O95049 6-103, limits assumed, looked up): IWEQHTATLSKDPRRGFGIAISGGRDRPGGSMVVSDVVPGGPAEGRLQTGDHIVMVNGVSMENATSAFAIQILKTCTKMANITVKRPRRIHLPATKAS

T13: USH1C_3, Q9Y6N9
T13 sequence (Q9Y6N9 447-547, limits assumed, looked up): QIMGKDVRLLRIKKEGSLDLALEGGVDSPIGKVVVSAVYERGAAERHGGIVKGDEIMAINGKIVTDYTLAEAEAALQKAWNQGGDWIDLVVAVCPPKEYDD


Legend:
Assay in all cases: holdup assay
Design in all cases: key: below the threshold = too weak to quantify, mostly under pKd 3.1 to 4
Settings in all cases: plain residues with an end cap or a label only (N-terminal biotin on a linker: ttds)
DLG5_2, Q8TDM6 = biological target: DLG5_2, Q8TDM6
DLG5_2, Q8TDM6, sequence (Q8TDM6 714-800): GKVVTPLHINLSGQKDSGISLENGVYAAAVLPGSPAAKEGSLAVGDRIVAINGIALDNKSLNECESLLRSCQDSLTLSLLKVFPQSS

DVL2, O14641 = biological target: DVL2, O14641
DVL2, O14641, sequence (O14641 260-359): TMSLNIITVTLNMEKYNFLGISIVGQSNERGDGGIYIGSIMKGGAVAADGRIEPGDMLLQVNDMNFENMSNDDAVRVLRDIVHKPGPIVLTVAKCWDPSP

GRIP2_2, Q9C0E4 = biological target: GRIP2_2, Q9C0E4
GRIP2_2, Q9C0E4, sequence (Q9C0E4 137-245): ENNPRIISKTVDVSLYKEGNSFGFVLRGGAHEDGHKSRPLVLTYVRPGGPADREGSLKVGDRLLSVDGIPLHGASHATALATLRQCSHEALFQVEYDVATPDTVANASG

INTU, Q9ULD6 = biological target: T1, INTU, Q9ULD6
MPDZ_2, O75970 = biological target: T2, MPDZ_2, O75970
MPDZ_7, O75970 = biological target: T3, MPDZ_7, O75970
MPP1, Q00013 = biological target: T4, MPP1, Q00013
MPP5, Q8N3R9 = biological target: T5, MPP5, Q8N3R9
O00233 = biological target: O00233
O60759 = biological target: O60759
PDZD2_4, O15018 = biological target: T6, PDZD2_4, O15018
PDZD4, Q76G19 = biological target: T7, PDZD4, Q76G19
PDZD7_1, Q9H5P4 = biological target: T8, PDZD7_1, Q9H5P4
PDZD8, Q8NEN9 = biological target: T9, PDZD8, Q8NEN9
Q13009 = biological target: Q13009
Q5TCQ9 = biological target: Q5TCQ9
Q70Z35 = biological target: Q70Z35
Q8IUC4 = biological target: Q8IUC4
Q96SB3 = biological target: Q96SB3
Q9C0E4 = biological target: Q9C0E4
Q9NPB6 = biological target: Q9NPB6
Q9Y3R0 = biological target: Q9Y3R0
SHROOM3, Q8TF72 = biological target: T10, SHROOM3, Q8TF72
SNTB2, Q13425 = biological target: T11, SNTB2, Q13425
TJP3_1, O95049 = biological target: T12, TJP3_1, O95049
USH1C_3, Q9Y6N9 = biological target: T13, USH1C_3, Q9Y6N9

Binder	pKd (DLG5_2, Q8TDM6)	pKd (DVL2, O14641)	pKd (GRIP2_2, Q9C0E4)	pKd (INTU, Q9ULD6)	pKd (MPDZ_2, O75970)	pKd (MPDZ_7, O75970)	pKd (MPP1, Q00013)	pKd (MPP5, Q8N3R9)	pKd (O00233)	pKd (O60759)	pKd (PDZD2_4, O15018)	pKd (PDZD4, Q76G19)	pKd (PDZD7_1, Q9H5P4)	pKd (PDZD8, Q8NEN9)	pKd (Q13009)	pKd (Q5TCQ9)	pKd (Q70Z35)	pKd (Q8IUC4)	pKd (Q96SB3)	pKd (Q9C0E4)	also measured
SSIDLWETAL [SLC15A5, A6NIM6]	below the threshold	below the threshold	below the threshold	below the threshold	below the threshold	6.09	below the threshold	below the threshold	below the threshold	below the threshold	below the threshold	below the threshold	4.95	below the threshold	below the threshold	below the threshold	below the threshold	below the threshold	below the threshold	below the threshold	pKd (Q9NPB6): below the threshold; pKd (Q9Y3R0): below the threshold; pKd (SHROOM3, Q8TF72): 4.81; pKd (SNTB2, Q13425): 5.54; pKd (TJP3_1, O95049): below the threshold; pKd (USH1C_3, Q9Y6N9): below the threshold
SHSSKGETAV [FZD7, O75084]	below the threshold	below the threshold	4.49	below the threshold	below the threshold	below the threshold	4.85	below the threshold	below the threshold	below the threshold	below the threshold	below the threshold	below the threshold	below the threshold	below the threshold	below the threshold	below the threshold	below the threshold	below the threshold	below the threshold	pKd (Q9NPB6): below the threshold; pKd (Q9Y3R0): below the threshold; pKd (SHROOM3, Q8TF72): below the threshold; pKd (SNTB2, Q13425): below the threshold; pKd (TJP3_1, O95049): below the threshold; pKd (USH1C_3, Q9Y6N9): below the threshold
